# Source: patent US20210130484A1 (SORRENTO THERAPEUTICS, published 2021)
# Target: T1, Recombinant human his-tagged CD38 protein (human, UniProt P28907 43-300)
# T1 construct: not shown: his tag
# Experiment: SPR (Biacore T200, 25 C), antibody captured on anti-human Fc CM5 chip, his-tagged human CD38 as analyte, steady state affinity model
# Description: Binding kinetics of parent antibody CD38 A2 and variant antibody CD38 A2 SV was measured using surface plasmon resonance (SPR). Kinetic interaction between the parent or variant antibody and a his-tagged CD38 protein were measured at 25° C. using Biacore T200 surface plasmon resonance (GE Healthcare). Anti-human fragment crystallizable region (Fc region) antibody was immobilized on a CM5 sensor chip to approximately 8000 resonance units (RU) using standard N hydroxysuccinimide/N Ethyl-N′-(3-dimethylaminopropyl) carbodiimide hydrochloride (NHS/EDC) coupling methodology. The CD38 A2 parent antibody or CD38 A2 SV variant antibody (2 μg/mL) was captured for 60 seconds at a flow rate of 10 μL/minute. Recombinant human his-tagged CD38 protein was serially diluted in a running buffer of 0.01 M HEPES pH 7.4, 0.15 M NaCl, 3 mM EDTA, 0.05% v/v Surfactant P20 (HBS EP+). All measurements were conducted in HBS-EP+buffer with a flow rate of 30 μL/minute. Steady state affinity model was used to get affinity. The sensorgrams of the CD38 A2 parent antibody and CD38 A2 SV variant antibody are shown in FIGS. 3A and B, respectively, and their corresponding binding kinetics are listed in Table 3 below.
binder,measurement,value
"variant antibody CD38 A2 SV (antibody, V domains shown, also called CD38-A2 SV mutant; CD38 A2 SV variant antibody) VH: QVQLVESGGGLVKPGGSLRLSCAASGFTFSDDYMSWIRQAPGKGLEWVASVSNGRPTTYYADSVRGRFTISRDNAKNSLYLQMNSLRAEDTAVYYCAREDWGGEFTDWGRGTLVTVSS VL: QSVLTQPPSASGTSGQRVTISCSGSSSNIGINFVYWYQHLPGTAPKLLIYKNNQRPSGVPDRFSGSKSGNSASLAISGLRSEDEADYYCAAWDDSLSGYVFGSGTKVTVL",Kd,15.6 nM
